# Assays:
# [1] = test system: T1, 33-mer gliadin peptide LQLQPFPQPQLPYPQPQLPYPQPQLPYPQPQPF
# T1 sequence: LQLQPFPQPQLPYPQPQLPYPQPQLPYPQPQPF
# [2] = test system: T2, gliadin peptide PQPQLPYPQPQLP
# T2 sequence: PQPQLPYPQPQLP
# [3] = test system: recombinant alpha2-gliadin
# barley endoprotease EPB2, mature form, sequence (chain, as listed by the source): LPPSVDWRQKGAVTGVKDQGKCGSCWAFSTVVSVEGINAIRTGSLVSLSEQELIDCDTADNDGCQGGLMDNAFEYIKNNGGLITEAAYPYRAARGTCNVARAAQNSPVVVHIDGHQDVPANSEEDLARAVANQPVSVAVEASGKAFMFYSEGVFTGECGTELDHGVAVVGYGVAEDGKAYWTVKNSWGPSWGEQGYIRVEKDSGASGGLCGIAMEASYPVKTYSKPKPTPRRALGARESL
Substance,rate of substrate (33-mer+32-mer) disappearance [1],Kcat/KM [2],competitive proteolysis of the 13-mer and the 33-mer [2],time to hydrolyze 10 µM of the 33-mer with 0.1 µM enzyme [1],digestion of purified α2-gliadin under acidic conditions [3]
"Myxococcus xanthus prolyl endopeptidase (recombinant, expressed in E. coli)",0.43 µM/min (MX PEP),548 mM^-1/s^-1,showed a clear preference for the 13-mer peptide,,
"Sphingomonas capsulata prolyl endopeptidase (recombinant, expressed in E. coli)",0.07 µM/min (SC PEP),492 mM^-1/s^-1,showed a clear preference for the 13-mer peptide,required >1 hr to reach a comparable endpoint,
"barley endoprotease EPB2, mature form",,,,,efficiently digests purified α2-gliadin
